The values below are quoted from earlier work in US11911476B2, “Process for preparing a drug delivery composition” (PK MED SAS, priority 2017, dated 2024).

For this data set the following is noted: temperature at which half of the drug loses its activity.

As to Adalimumab, the denaturation temperature result is “about 75 °C”.

Take lysozyme: the denaturation temperature was 76 °C.
